# Measured values published in article PMC5240642.
# Target: FcγRIIIa F158 extracellular domain (UniProt P08637)
# Test: SPR
# Sequence of UniProt P08637 (P08637 17-208): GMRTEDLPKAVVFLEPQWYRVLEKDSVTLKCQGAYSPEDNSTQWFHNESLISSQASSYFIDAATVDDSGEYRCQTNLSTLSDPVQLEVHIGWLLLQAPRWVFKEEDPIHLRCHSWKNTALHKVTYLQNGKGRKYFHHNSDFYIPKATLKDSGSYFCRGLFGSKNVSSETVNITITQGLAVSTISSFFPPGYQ
row,Substance,Kd [nM]
1,Humira® complexed with TNF homotrimer (2:1 molar ratio) (from UniProt P01375 77-233),6.9
2,MSB11022 complexed with TNF homotrimer (2:1 molar ratio) (from UniProt P01375 77-233),8
